B1: GST-B-2 (peptide B-2 expressed as glutathione S-transferase fusion protein) (other)
chain: CVFAHNYDYLVC
B2: GST-A-1 (peptide A-1 expressed as glutathione S-transferase fusion protein) (other)
chain: CVFTSDYAFC
B3: Prostate specific antigen (PSA), purified from human seminal fluid (enzyme)
chain: not shown
notes: mature; Mostly captured on wells by MAb 5E4 (IFMA) or on the chip by MAb H117 (SPR); in solution in enzyme assays; also called free PSA; active PSA

Assay [1] has as its target B3. In words: SPR, PSA captured by MAb H117, 30 µM Zn2+, single fit, 3.4 µM peptide.
Assay [2] deals with B3. Nature of the assay: cell-based or functional assay.
The target in assay [3] is B3. In words: SPR, PSA captured by MAb H117, 1 µM Zn2+, single fit, 3.4 µM peptide. Background: SPR reads the build-up and loss of mass on a sensor chip optically.
In assay [4] the target is B3. In words: SPR, PSA captured by MAb H117, 30 µM Zn2+.
Assay [5] concerns the target B3. Nature of the assay: SPR, PSA captured by MAb H117, 0 µM Zn2+, average of 3 fits (3.4-8.5 µM analyte).
For assay [6], the target named is B3. In words: SPR, GST-peptide injected over PSA captured by MAb H117; average of 3 concentrations.
For assay [7], the target named is B3. In words: cell-based or functional assay. The source holds these as a separate data set.
Assay [8] addresses B3. Nature of the assay: SPR, PSA captured by MAb H117, 10 µM Zn2+.
Assay [9] has as its target B3. In words: GST-peptide IFMA, PSA captured by MAb 5E4, Eu-labelled anti GST tracer.
In assay [10] the target is B3. In words: SPR, PSA captured by MAb H117, 10 µM Zn2+, single fit, 3.4 µM peptide.
In assay [11] the target is B3. In words: SPR, PSA captured by MAb H117, 1 µM Zn2+.
Assay [12] concerns the target B2. Nature of the assay: competition IFMA: GST-peptide (167 nM) preincubated with PSA in solution, then binding to PSA captured by MAb 5E4. The protocol:
(§1) Various amounts of GST-peptide or wild type GST were added to wells containing captured PSA in 200 μL of assay buffer and incubated for 1 h. To test the effect of Zn²⁺ on the binding between GST-peptide and PSA, various concentrations of Zn²⁺ (1-200 μM) were added to the buffer in the incubation step of GST-peptide and PSA. […] After incubation for 1 h the wells were washed and Eu³⁺-labeled anti GST antibody was added. After further incubation and washing the bound fluorescence was measured as described above. When assessing the binding of the GST-peptides to other proteinases, including chymotrypsin, cathepsin G, trypsin, and kallikrein, these proteinases were captured by their specific antibodies coated to the microtitration well. Recombinant hK2 was captured by MAb 5E4, which is known to bind hK2 (24). For assessing the binding of the GST-peptides with complexes of PSA, including PSA-ACT and PSA-α1-protease inhibitor (PSA-API) (28), the complexes were captured by antibodies against ACT and API, respectively. After capturing the various proteinases or PSA complexes, GST-peptide was added and binding was monitored as described above for the GST-peptide IFMA.
(§2) In this connection, we refer also to FIG. 3. GST-C-4 was preincubated with increasing concentrations of PSA in solution for 1 h. Then the samples of the mixtures were added to wells in which PSA had been captured by anti PSA MAb. The binding was measured by IFMA. Data represent mean values from duplicate wells ±SE. The corresponding values for the peptides A-1 (SEQ ID NO 1) and B-2 (SEQ ID NO 6) were 3.3 nM and 1 nM, respectively (data not shown). Preincubation of the GST-peptides with an excess of free PSA inhibited binding to the solid phase PSA. The binding of peptide C-4 (SEQ ID NO 11) to captured PSA was reduced by 50% at a PSA concentration of 0.7 nM.

Assay [13] addresses B1. The description is as above. The protocol: as §1, §2
Assay [14] addresses T1, GST-C-4 (peptide C-4 expressed as glutathione S-transferase fusion protein).
T1 chain: CVAYCIEHHCWTC
The description is as above. The protocol: as §1, §2

The term Kd denotes the constant that tells how readily two partners part at equilibrium. A higher Kd goes with weaker binding. Broadly, the koff is a measure of how fast the partners let go of each other. Lower therefore signals a long-lived complex. As usually defined, the kon is a measure of how fast the partners come together. High values mean faster complex formation, low ones slower complex formation. Take B1: the Kd stood at 800 nM in [1]; 3100 nM in assay [3]; 3500 nM in [5]; 3500 nM in assay [6]; 600 nM in assay [10]. Moreover, the koff in assay [1] came out at 0.0006 s⁻¹; in assay [3], 0.0035 s⁻¹; in [5] it was 0.057 s⁻¹; in [6], 0.057 s⁻¹; in assay [10], 0.0016 s⁻¹. Also, the association rate constant (kon) was 830 M⁻¹ s⁻¹ in assay [1], 16300 M⁻¹ s⁻¹ in [5], 16300 M⁻¹ s⁻¹ in [6] and 2650 M⁻¹ s⁻¹ in [10]. For the same molecule, in assay [2], the “minimum peptide concentration affecting the activity” value turned out to be 300 nM. In addition, the figures for the “increase (fold) of affinity against 0 µM Zn2+” value in [4] and in [8] were 4.7 fold and 6 fold, respectively. Moreover, the “50% stimulation” value in [7] amounted to 1.7 µM. In assay [9], the “Maximal binding (CPS)” value is 428000 CPS.

For B2, the Kd in [1] worked out at 1000 nM; in assay [3], 2600 nM; in assay [5], 7800 nM; in [6] it was 7800 nM; in assay [10] it was 1400 nM. Moreover, the koff worked out at 0.002 s⁻¹ in assay [1]; 0.0047 s⁻¹ in assay [3]; 0.08 s⁻¹ in [5]; 0.08 s⁻¹ in assay [6]; 0.0016 s⁻¹ in [10]. For the same molecule, the association rate constant (kon) was found to be 1900 M⁻¹ s⁻¹ in [1]; 1800 M⁻¹ s⁻¹ in assay [3]; 10300 M⁻¹ s⁻¹ in assay [5]; 10300 M⁻¹ s⁻¹ in assay [6]; 1200 M⁻¹ s⁻¹ in assay [10]. Besides, the “minimum peptide concentration affecting the activity” value in assay [2] stood at 300 nM. The “increase (fold) of affinity against 0 µM Zn2+” value in assay [4] worked out at 7.7 fold; in [8], 5.9 fold; in assay [11], 3 fold. For the same molecule, the “50% stimulation” value in assay [7] is 2.2 µM. Moreover, the “Maximal binding (CPS)” value in assay [9] turned out to be 219000 CPS.

As a reminder, the IC50 is the concentration that inhibits the measured activity by half. As for B3, the IC50 was 3.3 nM in assay [12], 1 nM in [13] and 0.7 nM in assay [14].
